This note sets out measurements from US20160122418A1 (ARIDIS PHARMACEUTICALS, published 2016).

Experiment [1] concerns the target T1, F protein of palivizumab-resistant clinical RSV isolate #20 (RSV clinical isolate #20, UniProt P11209 26-574).
T1 chain: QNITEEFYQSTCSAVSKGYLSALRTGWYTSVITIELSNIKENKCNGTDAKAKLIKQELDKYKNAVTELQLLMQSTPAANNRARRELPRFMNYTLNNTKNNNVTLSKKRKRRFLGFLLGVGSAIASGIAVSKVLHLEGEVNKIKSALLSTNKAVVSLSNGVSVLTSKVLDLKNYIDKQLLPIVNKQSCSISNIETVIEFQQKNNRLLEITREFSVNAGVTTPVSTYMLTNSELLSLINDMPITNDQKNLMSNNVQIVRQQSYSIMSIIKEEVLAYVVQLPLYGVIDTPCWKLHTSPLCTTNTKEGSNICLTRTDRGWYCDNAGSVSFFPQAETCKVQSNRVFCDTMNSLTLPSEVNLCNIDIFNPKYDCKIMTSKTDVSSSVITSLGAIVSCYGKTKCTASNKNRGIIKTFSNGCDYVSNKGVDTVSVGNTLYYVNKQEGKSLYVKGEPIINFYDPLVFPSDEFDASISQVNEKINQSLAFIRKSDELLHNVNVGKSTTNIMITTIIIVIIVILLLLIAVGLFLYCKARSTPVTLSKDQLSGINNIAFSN
Kind of experiment: cell-based or functional assay.

Experiment [2] has as its target F protein of clinical RSV isolate #1 (RSV clinical isolate #1). In words: cell-based or functional assay.
Experiment [3] has as its target T2, F protein on intact RSV particles (Example 10, strain or isolate not stated) (RSV, strain ).
T2 construct: also called RSV viral particles
In words: competition ELISA; RSV particles pre-incubated with inhibiting mAb at 20 µg/mL; competitor (coating mAb): palivizumab.

The target in experiment [4] is T3, Human RSV (A2) Fusion glycoprotein RSV F protein, Sino Biological Inc. (Human RSV (A2), UniProt P03420 26-529).
T3 construct: Bought protein; also called purified RSV F protein; recombinant human RSV F protein
Kind of experiment: SPR, Biacore 2000, F protein amine-coupled to CM5 chip, antibody as analyte, Langmuir 1:1 fit. Background: SPR reads the build-up and loss of mass on a sensor chip optically.

Experiment [5] addresses T3, Human RSV (A2) Fusion glycoprotein RSV …. In words: ELISA, serial dilutions of purified AR201 on plates coated 'as described above' (RSV-EIA antigen by the legend of FIG. 6, or purified F protein); anti-human IgG-HRP. (In general: In an ELISA, binding on a coated surface is turned into a signal by an enzyme label.)
Experiment [6] has as its target T2, F protein on intact RSV particles …. Kind of experiment: competition ELISA; RSV particles pre-incubated with inhibiting mAb at 20 µg/mL; competitor (coating mAb): AR201.
Protocol: After incubation for one hour at 4° C., plates were washed and polyclonal rabbit-anti-RSV-HRP labeled antisera was added to each well. Bound viral particles were detected by colorimetric measurement. Maximum binding of RSV to the immobilized antibody in the presence of the competitor antibody was determined relative to binding in the presence of the monoclonal human IgG control antibody.

B1: AR201 (antibody, V domains shown)
VH: LVQLRESGPGLVKPSQTLSLTCSVSGASINLYDYFWGWIRQAPGRGPEWIGYISGSTYYNPSLKRRATISVDTSKSQFFLELTSVTAADTAVYYCARDVGWGPQYYYGLDVWGQGTTVTVSS
VL: DLVLTQSPGTLSLSPGERATLSCRASHSVQSTSLAWYQQKRGQAPRLLIYGGSSRVTGIPDRFSGSGSGTDFTLTISRLEPEDFAVYYCQQSDRSPPITFGQGTRLEMK
notes: Recombinant human IgG1 made in HEK293T cells; kappa light chain cloned whole; The claims' numbering is used here; also called KBRV201; human monoclonal antibody AR201
Usually Kd stands for the equilibrium constant for the complex coming apart. Read a low Kd as a tighter complex. Usually koff stands for the first-order rate constant of dissociation. A higher koff goes with fast dissociation. As a reminder, the kon is a measure of how fast the partners come together. A high value points to faster complex formation. One may read the EC50 as the concentration needed to bring the measured effect to its halfway point. A low value points to higher potency in that assay. Turning to B1, the “IC50 of neutralization, infectivity assay on Hep2 cells” value in experiment [1] worked out at 1710 nM. For the same molecule, the “IC50 of neutralization, infectivity assay on Hep2 cells” value in experiment [2] came to 1700 nM. The “% binding of RSV to the coating mAb relative to control IgG” value in experiment [3] is 40.8%. In experiment [4], this molecule had a dissociation constant Kd of 0.058 nM, an off-rate (koff) of 2.7e-05 s⁻¹ and a kon of 470000 M⁻¹ s⁻¹. For the same molecule, the midpoint of the response in experiment [5], the EC50, lay at 0.103 nM. Besides, the “% binding of RSV to the coating mAb relative to control IgG” value in experiment [6] was determined as 22.5%.
